The target of this assay is human NGF (Homo sapiens, UniProt P01138). Nature of the assay: BIAcore screening assay of Fab library clones (koff). In kind it is binding. The following applies: for binding affinity compared with the 8L2-6D5 template: single CDR3 mutation. The protocol:
Small scale expression in 96 wells plates was optimized for screening Fab libraries. Starting from E. coli transformed with a Fab library, colonies were picked to inoculate both a master plate (agar LB+Ampicillin (50 μg/ml)+2% Glucose) and a working plate (2 ml/well, 96 well/plate containing 1.5 mL of LB+Ampicillin (50 μg/ml)+2% Glucose). Both plates were grown at 30° C. for 8-12 hours. The master plate was stored at 4° C. and the cells from the working plate were pelleted at 5000 rpm and resuspended with 1 mL of LB+Ampicillin (50 μg/ml)+1 mM IPTG to induce expression of Fabs. Cells were harvested by centrifugation after 5 h expression time at 30° C., then resuspended in 500 μL of buffer HBS-EP ([…] buffer pH 7.4, 150 mM NaCl, 0.005% P20, 3 mM EDTA). Lysis of HBS-EP resuspended cells was attained by one cycle of freezing (−80° C.) then thawing at 37° C. Cell lysates were centrifuged at 5000 rpm for 30 min to separate cell debris from supernatants containing Fabs. The supernatants were then injected into the BIAcore plasmon resonance apparatus to obtain affinity information for each Fab. Clones expressing Fabs were rescued from the master plate to sequence the DNA and for large scale Fab production and detailed characterization as described below.
Affinities of anti-NGF Fabs and monoclonal antibodies were determined using the BIAcore300™ surface plasmon resonance (SPR) system (BIAcore, INC, Piscaway N.J.). CM5 chips were activated with N-ethyl-N′-(3-dimethylaminopropyl)-carbodimide hydrochloride (EDC) and N-hydroxysuccinimide (NHS) according to the supplier's instructions. Human NGF was diluted into 10 mM sodium acetate pH 4.0 and injected over the activated chip at a concentration of 0.005 mg/mL. Using variable flow time across the individual chip channels, two ranges of antigen density were achieved: 100-200 response units (RU) for detailed kinetic studies and 500-600 RU for screening assays. The chip was blocked with ethanolamine. […] HBS-EP buffer (0.01M HEPES, pH 7.4, 0.15 NaCl, 3 mM EDTA, 0.005% Surfactant […]) was used as running buffer for all the BIAcore assays.
A screening BIAcore assay was optimized to determine the affinity of Fab clones from libraries. Supernatants of small culture lysates were injected at 50 μl/min for 2 min. Dissociation times of 10 to 15 minutes were used for determination of a single exponential dissociation rate (koff) using BIAevaluation software. […] Clones showing improved (slower) koff values were expressed at large scale and full kinetic parameters, kon and koff, were determined on purified protein. The assay was capable of detecting differences in affinity that were approximately 2-fold or larger.
For affinity screening experiments, each library was further paired with the corresponding CDR-grafted light or heavy chain (for example, the H1/H2 library was paired with CDR-grafted light chain), the antibody was expressed, and affinity to human NGF of the individual clones was screened using the BIACORE surface plasmon resonance (SPR) system (BIAcore, Inc. Piscataway, N.J.) according to the manufacturer's instructions and as described above. koff, kon and KD were determined. Antibody clones were ranked based on koff rates, since generally most variation in affinity is seen in koff rates, and further because koff rates are independent of antibody concentration.
20-80 clones from each small library were screened using BIAcore analysis as described herein. Samples were simultaneously analyzed by BIAcore for binding affinity to NGF in one channel of the BIAcore chip and for presence of Fab by binding to a penta-histag antibody in another channel of the sensor chip, to detect the his tag at the C terminus of the heavy chain. Clones that expressed protein were classified as having the same affinity, worse affinity, better affinity or no binding, using koff to classify: The results of this analysis are shown in Table 5.
Background: Surface plasmon resonance follows binding to a sensor surface in real time, without labels.

The mark [1] stands for this setting: Table 3: heavy chain library clones paired with 6D5 light chain.
Setting [2] is: Table 3: light chain library clones paired with 8L2 heavy chain.
[3] abbreviates: Table 6: single CDR H3 or L3 mutation in 8L2-6D5 template.

Usually koff stands for the first-order rate constant of dissociation.

Sequence of human NGF (P01138 122-241): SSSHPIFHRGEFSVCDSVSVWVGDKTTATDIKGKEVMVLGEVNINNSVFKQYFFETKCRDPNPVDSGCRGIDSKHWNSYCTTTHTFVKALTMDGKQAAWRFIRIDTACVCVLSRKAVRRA

B1: 8L2-6D5: CDR-grafted antibody with V71K heavy chain framework substitution; template for affinity maturation (antibody, V domains shown)
VH: QVQLQESGPGLVKPSETLSLTCTVSGFSLIGYDINWIRQPPGKGLEWIGMIWGDGTTDYNSALKSRVTISKDTSKNQFSLKLSSVTAADTAVYYCARGGYYYGTSYYFDYWGQGTLVTVS
VL: DIQMTQSPSSLSASVGDRVTITCRASQDISNHLNWYQQKPGKAPKLLIYYISRFHSGVPSRFSGSGSGTDFTFTISSLQPEDIATYYCQQSKTLPYTFGQGTKLEIKRT
Consider B1, for which the koff reads like this: under setting [1], 0.001 s⁻¹; under setting [2], “**1e3 s-1”; under setting [3], 0.001 s⁻¹; (Table 8: CDR L3 H3 combination mutations, 8L2-6D5 template) 0.001 s⁻¹; (template used to create the library) 1×10^−3 s^−.

B2: L97: light chain library clone, CDRL1 SEQ ID NO:22, CDRL2 SEQ ID NO:23 (antibody, V domains shown)
VH: QVQLQESGPGLVKPSETLSLTCTVSGFSLIGYDINWIRQPPGKGLEWIGMIWGDGTTDYNSALKSRVTISKDTSKNQFSLKLSSVTAADTAVYYCARGGYYYGTSYYFDYWGQGTLVTVS
VL: DIQMTQSPSSLSASVGDRVTITCRASQSISNQLNWYQQKPGKAPKLLIYYVSRFHSGVPSRFSGSGSGTDFTFTISSLQPEDIATYYCQQSKTLPYTFGQGTKLEIKRT
B2 returned an off-rate constant (koff) under setting [2] of 0.00056 s⁻¹.

B3: H109: heavy chain library clone, CDRH1 SEQ ID NO:28, CDRH2 SEQ ID NO:29 (antibody, V domains shown)
VH: QVQLQESGPGLVKPSETLSLTCTVSGFSLIGYDSNWIRQPPGKGLEWIGIIWGDGTTDYNSALKSRVTISKDTSKNQFSLKLSSVTAADTAVYYCARGGYYYGTSYYFDYWGQGTLVTVS
VL: DIQMTQSPSSLSASVGDRVTITCRASQDISNHLNWYQQKPGKAPKLLIYYISRFHSGVPSRFSGSGSGTDFTFTISSLQPEDIATYYCQQSKTLPYTFGQGTKLEIKRT
The molecule B3 had a koff under setting [1] of 0.00016 s⁻¹.

B4: L81: light chain library clone, CDRL1 SEQ ID NO:24, CDRL2 SEQ ID NO:25 (antibody, V domains shown)
VH: QVQLQESGPGLVKPSETLSLTCTVSGFSLIGYDINWIRQPPGKGLEWIGMIWGDGTTDYNSALKSRVTISKDTSKNQFSLKLSSVTAADTAVYYCARGGYYYGTSYYFDYWGQGTLVTVS
VL: DIQMTQSPSSLSASVGDRVTITCRAFQAISNQLNWYQQKPGKAPKLLIYYISRFHTGVPSRFSGSGSGTDFTFTISSLQPEDIATYYCQQSKTLPYTFGQGTKLEIKRT
As for B4, the koff under setting [2] stood at 0.00074 s⁻¹.

B5: S105A: 8L2-6D5 template with CDR H3 mutation S105A (SEQ ID NO:47) (antibody, V domains shown)
VH: QVQLQESGPGLVKPSETLSLTCTVSGFSLIGYDINWIRQPPGKGLEWIGMIWGDGTTDYNSALKSRVTISKDTSKNQFSLKLSSVTAADTAVYYCARGGYYYGTAYYFDYWGQGTLVTVS
VL: DIQMTQSPSSLSASVGDRVTITCRASQDISNHLNWYQQKPGKAPKLLIYYISRFHSGVPSRFSGSGSGTDFTFTISSLQPEDIATYYCQQSKTLPYTFGQGTKLEIKRT
For the molecule B5, the “binding affinity compared with the 8L2-6D5 template” value is on record as “significantly increased binding affinity”. Further, the koff under setting [3] was 0.00051 s⁻¹.

B6: S105T: 8L2-6D5 template with CDR H3 mutation S105T (SEQ ID NO:48) (antibody, V domains shown)
VH: QVQLQESGPGLVKPSETLSLTCTVSGFSLIGYDINWIRQPPGKGLEWIGMIWGDGTTDYNSALKSRVTISKDTSKNQFSLKLSSVTAADTAVYYCARGGYYYGTTYYFDYWGQGTLVTVS
VL: DIQMTQSPSSLSASVGDRVTITCRASQDISNHLNWYQQKPGKAPKLLIYYISRFHSGVPSRFSGSGSGTDFTFTISSLQPEDIATYYCQQSKTLPYTFGQGTKLEIKRT
As for B6, the “binding affinity compared with the 8L2-6D5 template” value was “significantly increased binding affinity”. The molecule also displayed a dissociation rate constant (koff) under setting [3] of 0.00064 s⁻¹.

B7: S91E: 8L2-6D5 template with CDR L3 mutation S91E (SEQ ID NO:50) (antibody, V domains shown)
VH: QVQLQESGPGLVKPSETLSLTCTVSGFSLIGYDINWIRQPPGKGLEWIGMIWGDGTTDYNSALKSRVTISKDTSKNQFSLKLSSVTAADTAVYYCARGGYYYGTSYYFDYWGQGTLVTVS
VL: DIQMTQSPSSLSASVGDRVTITCRASQDISNHLNWYQQKPGKAPKLLIYYISRFHSGVPSRFSGSGSGTDFTFTISSLQPEDIATYYCQQEKTLPYTFGQGTKLEIKRT
B7: the “binding affinity compared with the 8L2-6D5 template” value is recorded as “significantly increased binding affinity”. The molecule further showed a koff under setting [3] of 0.00025 s⁻¹.

B8: L129: light chain library clone, CDRL1 SEQ ID NO:18, CDRL2 SEQ ID NO:19 (antibody, V domains shown)
VH: QVQLQESGPGLVKPSETLSLTCTVSGFSLIGYDINWIRQPPGKGLEWIGMIWGDGTTDYNSALKSRVTISKDTSKNQFSLKLSSVTAADTAVYYCARGGYYYGTSYYFDYWGQGTLVTVS
VL: DIQMTQSPSSLSASVGDRVTITCRASQSISNNLNWYQQKPGKAPKLLIYYTSRFHSGVPSRFSGSGSGTDFTFTISSLQPEDIATYYCQQSKTLPYTFGQGTKLEIKRT
B8 showed an off-rate (koff) under setting [2] of 0.00045 s⁻¹.

B9: G103A: 8L2-6D5 template with CDR H3 mutation G103A (SEQ ID NO:49) (antibody, V domains shown)
VH: QVQLQESGPGLVKPSETLSLTCTVSGFSLIGYDINWIRQPPGKGLEWIGMIWGDGTTDYNSALKSRVTISKDTSKNQFSLKLSSVTAADTAVYYCARGGYYYATSYYFDYWGQGTLVTVS
VL: DIQMTQSPSSLSASVGDRVTITCRASQDISNHLNWYQQKPGKAPKLLIYYISRFHSGVPSRFSGSGSGTDFTFTISSLQPEDIATYYCQQSKTLPYTFGQGTKLEIKRT
For the molecule B9, the “binding affinity compared with the 8L2-6D5 template” value is listed as “significantly increased binding affinity”. The same molecule displayed a koff under setting [3] of 0.00016 s⁻¹.

B10: Y101W: 8L2-6D5 template with CDR H3 mutation Y101W (SEQ ID NO:46) (antibody, V domains shown)
VH: QVQLQESGPGLVKPSETLSLTCTVSGFSLIGYDINWIRQPPGKGLEWIGMIWGDGTTDYNSALKSRVTISKDTSKNQFSLKLSSVTAADTAVYYCARGGYWYGTSYYFDYWGQGTLVTVS
VL: DIQMTQSPSSLSASVGDRVTITCRASQDISNHLNWYQQKPGKAPKLLIYYISRFHSGVPSRFSGSGSGTDFTFTISSLQPEDIATYYCQQSKTLPYTFGQGTKLEIKRT
In the case of B10, the “binding affinity compared with the 8L2-6D5 template” value was “significantly increased binding affinity”. The same molecule came in with a koff under setting [3] of 0.00056 s⁻¹.

B11: L208: light chain library clone, CDRL1 SEQ ID NO:20, CDRL2 SEQ ID NO:21 (antibody, V domains shown)
VH: QVQLQESGPGLVKPSETLSLTCTVSGFSLIGYDINWIRQPPGKGLEWIGMIWGDGTTDYNSALKSRVTISKDTSKNQFSLKLSSVTAADTAVYYCARGGYYYGTSYYFDYWGQGTLVTVS
VL: DIQMTQSPSSLSASVGDRVTITCRASQYISNHLNWYQQKPGKAPKLLIYYTSRFHSGVPSRFSGSGSGTDFTFTISSLQPEDIATYYCQQSKTLPYTFGQGTKLEIKRT
In turn, B11 displayed a dissociation rate constant (koff) under setting [2] of 0.00046 s⁻¹.

The values are drawn from patent US20080182978A1, “ANTI-NGF ANTIBODIES AND METHODS USING SAME” (RINAT NEUROSCIENCE CORP, priority 2002, published 2008).
